Measured values: patent US20200102389A1 (Hoffmann-La Roche, published 2020)

How the values were obtained:
[1] = target: T1, recombinant soluble human HLA-G β2M MHC class I complex, trimer (human); test: ELISA, HLA-G trimer coated on plate
T1 construct: also called HLA-G Trimer; fraction A8
Protocol: The above table summarizes the binding of different rat anti-human HLA-G monoclonal antibodies, derived from wt protein IMS. Shown are the relative EC50 values [ng/ml] of the respective binding to rec. wt monomeric, dimeric and trimeric HLA-G proteins as assessed by ELISA. The ELISA was set up by coating the biotinylated wt HLA-G antigen to strepdavidin plates. After incubation and washing steps, the respective antibodies were bound in a concentration range from 10-0 μg in 1:2 dilution steps. Detection of bound antibodies was carried out by anti-Fc-antibody-POD conjugates. EC50 values were determined from the resulting binding curves at the antibody concentrations generating the half-maximal signal. In case of the non-biotinylated HLA-G dimer and trimer antigens, immobilization was carried out by random coating on assay plates.

[2] = target: T2, recombinant soluble human HLA-G β2M MHC class I complex, monomer (human); test: competition ELISA, immobilised biotinylated wt HLA-G, competitor c-myc ILT2
T2 construct: His tagged; also called HLA-G-0003
Protocol: Streptavidin coated plates (Nunc, MicroCoat #11974998001) were coated with 25 μl/well biotinylated human wt HLA-G at a concentration of 500 ng/ml and incubated at 4° C. overnight. After washing (3×90 μl/well with PB ST-buffer) 25 μl anti-HLA-G samples were added in decreasing concentrations starting at 8 μg/ml, then diluted in 1:3 steps and incubated 1 h at RT. After washing (3×90 μl/well with PBST-buffer) 25 μl/well c-myc-tagged recombinant ILT-2 receptor was added at a concentration of 150 ng/ml and incubated for 1 h at room temperature. After washing (3×90 μl/well with PBST-buffer) 25 μl/well goat-anti-c-myc-POD (Bethyl #A190-104P 1:7000 in OSE) was added and incubated at RT for 1 h on a shaker. After washing (6×90 μl/well with PBST-buffer), 25 μl/well TMB substrate (Roche, 11835033001) was added and incubated until OD 2-3. Measurement took place on a Tecan Safire 2 instrument at 370/492 nm
(§1) The ELISA was set up by coating the biotinylated antigen wt HLA-G to strepdavidin plates. After incubation and washing steps, the respective antibodies were bound in a concentration range from 8-0 μg in 1:3 dilution steps. C-myc tagged ILT-2 or -4 receptor was added to the HLA-G-antibody complexes. After incubation and washing steps, detection of bound receptor was carried out by anti-cmyc-antibody-POD conjugates. IC50 values were determined from the resulting inhibition curves at the antibody concentrations generating the half-maximal inhibition. In case of the non-biotinylated HLA-G dimer and trimer antigens, immobilization was carried out by random coating on assay plates.

[3] = target: T2, recombinant soluble human HLA-G β2M MHC …; test: blocking ELISA, Fc tagged ILT2 coated, 100 nM antibody, soluble HLA-G monomer
Protocol: (§2) The ELISA was set up by coating the Fc tagged ILT2 and ILT4 respectively to Maxisorp microtiter plates. After incubation and washing steps, the respective antibodies were added at a concentration of 100nM. Soluble His tagged monomeric, dimeric or trimeric HLA-G was added to the wells. After incubation and washing steps, detection of bound receptor was carried out by anti-His-antibody-POD conjugates.

[4] = target: T1, recombinant soluble human HLA-G β2M MHC …; test: blocking ELISA, Fc tagged ILT4 coated, 100 nM antibody, soluble HLA-G trimer
Protocol: as §2

[5] = target: T3, modified human HLA-G β2M MHC class I complex (HLA-G specific amino acids replaced by HLA-A consensus amino … (human)); test: SPR (Biacore T200), antibody captured via anti-Fc, degrafted HLA-G complex injected, 25 C, 1:1 fit
T3 construct: also called degrafted HLA-G
Protocol: Binding kinetics of anti-HLA-G antibodies to human HLA-G, human HLA-G degrafted and human HLA-A2 were investigated by surface plasmon resonance using a BIACORE T200 instrument (GE Healthcare). All experiments were performed at 25° C. using PBS Buffer (pH 7.4+0.05% Tween20) as running buffer and PBS Buffer (+0.1% BSA) as dilution buffer. Anti-human Fc (JIR009-005-098, Jackson) or anti-rat Fc (JIR112-005-071, Jackson) or anti-Mouse Fc (JIR115-005-071, Jackson) antibodies were immobilized on a Series S CM5 Sensor Chip (GE Healthcare) at pH 5.0 by using an amine coupling kit supplied by GE Healthcare. Anti-HLA-G antibodies were captured on the surface leading to a capturing response of 50-200 RU. HLA-G molecules were injected for 180 s at 30 μl/min with concentrations from 2.5 up to 800 nM (2×1:2 and 4×1:3 dilution series) onto the surface (association phase). The dissociation phase was monitored for 300-600 sec by washing with running buffer. […] Bulk refractive index differences were corrected by subtracting the response obtained from a mock surface. Blank injections were subtracted (double referencing). The derived curves were fitted to a 1:1 Langmuir binding model using the BIAevaluation software.
The above table summarizes the antibody affinities and t1/2 values against wt and degrafted HLA-G as assessed by Surface plasmon resonance (Biacore) analysis. Binding kinetics of anti-HLA-G antibodies to human HLA-G, human HLA-G degrafted and human HLA-A2 were investigated by surface plasmon resonance using a BIACORE T200 instrument (GE Healthcare). All experiments were performed at 25° C. using PBS Buffer (pH 7.4+0.05% Tween20) as running buffer and PBS Buffer (+0.1% BSA) as dilution buffer. Anti-human Fc (JIR009-005-098, Jackson) or anti-rat Fc (JIR112-005-071, Jackson) or anti-Mouse Fc (JIR115-005-071, Jackson) antibodies were immobilized on a Series S CM5 Sensor Chip (GE

[6] = target: T4, recombinant soluble human HLA-G β2M MHC class I complex, dimer (human); test: blocking ELISA, Fc tagged ILT4 coated, 100 nM antibody, soluble HLA-G dimer
T4 construct: also called HLA-G Dimer; fraction A9
Protocol: as §2

[7] = target: T4, recombinant soluble human HLA-G β2M MHC …; test: competition ELISA, immobilised HLA-G dimer, antibody titrated, competitor c-myc ILT4
Protocol: as §1

[8] = target: T3, modified human HLA-G β2M MHC class I …; test: SPR (Biacore T200), antibody captured, HLA-G complex injected

Binder | EC50 [1] [nM] | % inh. ILT2 (3 µg/ml antibody) [2] [%] | % inh. ILT2 [3] [%] | % inh. ILT4 [4] [%] | Kd [5] [nM] | koff [5] [s⁻¹] | kon [5] [M⁻¹ s⁻¹] | t ½ [5] [s] | % inh. ILT4 [6] [%] | IC50 [7] [nM] | binding result [8]
HLA-G-0037 (antibody, V domains shown) VH: QVQLKESGPGLVQPSQTLSLTCSVSGFSLTTYSVSWVRQPPGKGLEWIGAIWSGGSTDYNSALKSRLRISRDTSKSQVLLKMNSLQTEDRAMYFCVRMNNKFGYWYFDLWGPGTMVTVSS VL: DTVLTQSPTLAVSPGEKITISCRASETVSTMLHWYQQKPGQQPKLLISLASHLESGVPARFTGSGSGTDFTLTIDPVEADDTATYYCQQTWNDPLTFGSGTKLEIK | 2.5 | 82.9 | 73 | 67 | 2120 | 0.116 | 54700 | 6 | 61 |  | 
HLA-G-0033 (antibody, V domains shown) VH: EVQLVETGGGLVQSGRSLKLSCVASGFTFNDYWMTWTRQAPGKGLEWVASITNSGGRTYYLDSVRGRFTISRDDAQNTLYLQMNSLRSEDTATYYCTKERIYLTAYWFFDFWGPGTMVTVSS VL: DTILTQSPALAVSPGERVTISCRASESVSTLIHWYQQKPGQRPKLLIYLASHLESGVPARFSGSGSGTDFTLTIDPVEADDTATYYCQQSWNEPRTFGGGTKLELK | 1.54 | 85.3 | 75 | 71 | 3.62 | 0.0345 | 9.54e+06 | 18 | 70 | 31.3 | 
HLA-G-0032 (antibody, V domains shown) VH: QVQLQQSGAELVKPGSSVKISCKASGYSFPSYDMHWIKQQPGNGLEWIGWIYPGNGNTKYNQKFNGKASLTADKSSSTAYMQLSSLTSEDSAVYFCAKPTVATRYNWFAYWGQGTLVTVSS VL: QIVLTQSPALMSASPGEKVTMTCSASSSVNYMHWYQQKPRSSPKPWIYLTSNLASGVPARFSGSGSGTSYSLTISTMEAEDAATYYCQQWSSNLPITFGSGTKLEIK | 1.76 | 86.8 | 75 | 68 |  |  |  |  | 62 | 50.3 | no binding (tested: 2.5 up to 800 nM)
